T1: EsCas13d, nuclease-dead (Eubacterium siraeum, UniProt B0MS50, R295A;H300A;R849A;H854A)
T1 sequence: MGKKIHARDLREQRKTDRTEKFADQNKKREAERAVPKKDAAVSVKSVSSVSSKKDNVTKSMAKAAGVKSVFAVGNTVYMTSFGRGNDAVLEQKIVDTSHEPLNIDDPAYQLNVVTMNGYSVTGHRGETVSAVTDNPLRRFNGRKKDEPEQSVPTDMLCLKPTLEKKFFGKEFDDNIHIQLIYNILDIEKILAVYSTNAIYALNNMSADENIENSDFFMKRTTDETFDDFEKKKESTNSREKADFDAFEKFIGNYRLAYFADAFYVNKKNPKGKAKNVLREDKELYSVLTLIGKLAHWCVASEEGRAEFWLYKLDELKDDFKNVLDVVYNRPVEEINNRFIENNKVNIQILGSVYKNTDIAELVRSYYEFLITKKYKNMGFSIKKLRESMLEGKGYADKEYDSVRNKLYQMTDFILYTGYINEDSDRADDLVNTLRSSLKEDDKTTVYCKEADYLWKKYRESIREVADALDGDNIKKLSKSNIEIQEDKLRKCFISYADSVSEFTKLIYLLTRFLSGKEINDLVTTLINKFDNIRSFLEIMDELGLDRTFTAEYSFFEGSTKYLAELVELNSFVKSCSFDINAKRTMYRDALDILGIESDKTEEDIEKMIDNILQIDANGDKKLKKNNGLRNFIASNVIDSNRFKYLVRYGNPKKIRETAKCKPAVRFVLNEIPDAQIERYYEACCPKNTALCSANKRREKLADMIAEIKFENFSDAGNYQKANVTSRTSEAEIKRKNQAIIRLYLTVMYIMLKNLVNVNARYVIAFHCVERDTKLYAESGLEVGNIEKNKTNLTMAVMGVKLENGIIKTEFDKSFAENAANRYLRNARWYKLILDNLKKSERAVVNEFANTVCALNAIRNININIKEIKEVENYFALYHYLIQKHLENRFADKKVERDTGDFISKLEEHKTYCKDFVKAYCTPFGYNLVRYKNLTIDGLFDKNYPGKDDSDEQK

B1: target 1 MT 5'PFS CCU 3'PFS UUG (mixed)
RNA 1: CACCCGUGCAAAAAUGCAGGGGUCUAAAACUGAGCGGAUAACCUCUCUAUGG
RNA 2: GGGAAUGGAUCCACAUCUACGAAUUCCCUCCAUAGAGAGGUUAUCCGCUCAUUGAGAUCGGAAGAGCACACGU
B2: target 1 MT 5'PFS GUG 3'PFS UCA (mixed)
RNA 1: CACCCGUGCAAAAAUGCAGGGGUCUAAAACUGAGCGGAUAACCUCUCUAUGG
RNA 2: GGGAAUGGAUCCACAUCUACGAAUUCGUGCCAUAGAGAGGUUAUCCGCUCAUCAAGAUCGGAAGAGCACACGU
B3: target 1 insU 3' of 12,insU 3' of 6 (mixed)
RNA 1: CACCCGUGCAAAAAUGCAGGGGUCUAAAACUGAGCGGAUAACCUCUCUAUGG
RNA 2: GGGAAUGGAUCCACAUCUACGAAUUCGUACCAUAGAGAGGUUUAUCCUGCUCACCGAGAUCGGAAGAGCACACGU
B4: target 1 MT 5'PFS GUG 3'PFS UCG (mixed)
RNA 1: CACCCGUGCAAAAAUGCAGGGGUCUAAAACUGAGCGGAUAACCUCUCUAUGG
RNA 2: GGGAAUGGAUCCACAUCUACGAAUUCGUGCCAUAGAGAGGUUAUCCGCUCAUCGAGAUCGGAAGAGCACACGU
B5: target 1 MT 5'PFS GUA 3'PFS AUC (mixed)
RNA 1: CACCCGUGCAAAAAUGCAGGGGUCUAAAACUGAGCGGAUAACCUCUCUAUGG
RNA 2: GGGAAUGGAUCCACAUCUACGAAUUCGUACCAUAGAGAGGUUAUCCGCUCAAUCAGAUCGGAAGAGCACACGU
B6: target 1 MT 5'PFS CAC 3'PFS UCC (mixed)
RNA 1: CACCCGUGCAAAAAUGCAGGGGUCUAAAACUGAGCGGAUAACCUCUCUAUGG
RNA 2: GGGAAUGGAUCCACAUCUACGAAUUCCACCCAUAGAGAGGUUAUCCGCUCAUCCAGAUCGGAAGAGCACACGU
B7: target 1 MT 5'PFS GUG 3'PFS UCC (mixed)
RNA 1: CACCCGUGCAAAAAUGCAGGGGUCUAAAACUGAGCGGAUAACCUCUCUAUGG
RNA 2: GGGAAUGGAUCCACAUCUACGAAUUCGUGCCAUAGAGAGGUUAUCCGCUCAUCCAGAUCGGAAGAGCACACGU
B8: target 1 MT 5'PFS CUU 3'PFS UUG (mixed)
RNA 1: CACCCGUGCAAAAAUGCAGGGGUCUAAAACUGAGCGGAUAACCUCUCUAUGG
RNA 2: GGGAAUGGAUCCACAUCUACGAAUUCCUUCCAUAGAGAGGUUAUCCGCUCAUUGAGAUCGGAAGAGCACACGU
B9: target 1 MT 5'PFS CCU 3'PFS UUC (mixed)
RNA 1: CACCCGUGCAAAAAUGCAGGGGUCUAAAACUGAGCGGAUAACCUCUCUAUGG
RNA 2: GGGAAUGGAUCCACAUCUACGAAUUCCCUCCAUAGAGAGGUUAUCCGCUCAUUCAGAUCGGAAGAGCACACGU
B10: target 1 MT 5'PFS ACG 3'PFS UCC (mixed)
RNA 1: CACCCGUGCAAAAAUGCAGGGGUCUAAAACUGAGCGGAUAACCUCUCUAUGG
RNA 2: GGGAAUGGAUCCACAUCUACGAAUUCACGCCAUAGAGAGGUUAUCCGCUCAUCCAGAUCGGAAGAGCACACGU
B11: target 1 MT 5'PFS AGA 3'PFS UUA (mixed)
RNA 1: CACCCGUGCAAAAAUGCAGGGGUCUAAAACUGAGCGGAUAACCUCUCUAUGG
RNA 2: GGGAAUGGAUCCACAUCUACGAAUUCAGACCAUAGAGAGGUUAUCCGCUCAUUAAGAUCGGAAGAGCACACGU
B12: target 1 MT 5'PFS UAC 3'PFS UUG (mixed)
RNA 1: CACCCGUGCAAAAAUGCAGGGGUCUAAAACUGAGCGGAUAACCUCUCUAUGG
RNA 2: GGGAAUGGAUCCACAUCUACGAAUUCUACCCAUAGAGAGGUUAUCCGCUCAUUGAGAUCGGAAGAGCACACGU
B13: target 1 MT 5'PFS CAG 3'PFS UAC (mixed)
RNA 1: CACCCGUGCAAAAAUGCAGGGGUCUAAAACUGAGCGGAUAACCUCUCUAUGG
RNA 2: GGGAAUGGAUCCACAUCUACGAAUUCCAGCCAUAGAGAGGUUAUCCGCUCAUACAGAUCGGAAGAGCACACGU
B14: target 1 MT 5'PFS CCU 3'PFS UUA (mixed)
RNA 1: CACCCGUGCAAAAAUGCAGGGGUCUAAAACUGAGCGGAUAACCUCUCUAUGG
RNA 2: GGGAAUGGAUCCACAUCUACGAAUUCCCUCCAUAGAGAGGUUAUCCGCUCAUUAAGAUCGGAAGAGCACACGU
B15: target 1 C6U,G12C (mixed)
RNA 1: CACCCGUGCAAAAAUGCAGGGGUCUAAAACUGAGCGGAUAACCUCUCUAUGG
RNA 2: GGGAAUGGAUCCACAUCUACGAAUUCGUACCAUAGAGAGCUUAUCUGCUCACCGAGAUCGGAAGAGCACACGU
B16: target 1 MT 5'PFS ACG 3'PFS UCG (mixed)
RNA 1: CACCCGUGCAAAAAUGCAGGGGUCUAAAACUGAGCGGAUAACCUCUCUAUGG
RNA 2: GGGAAUGGAUCCACAUCUACGAAUUCACGCCAUAGAGAGGUUAUCCGCUCAUCGAGAUCGGAAGAGCACACGU
B17: target 1 MT 5'PFS CUU 3'PFS UUC (mixed)
RNA 1: CACCCGUGCAAAAAUGCAGGGGUCUAAAACUGAGCGGAUAACCUCUCUAUGG
RNA 2: GGGAAUGGAUCCACAUCUACGAAUUCCUUCCAUAGAGAGGUUAUCCGCUCAUUCAGAUCGGAAGAGCACACGU
B18: target 1 MT 5'PFS CUU 3'PFS UUA (mixed)
RNA 1: CACCCGUGCAAAAAUGCAGGGGUCUAAAACUGAGCGGAUAACCUCUCUAUGG
RNA 2: GGGAAUGGAUCCACAUCUACGAAUUCCUUCCAUAGAGAGGUUAUCCGCUCAUUAAGAUCGGAAGAGCACACGU
B19: target 1 MT 5'PFS CUA 3'PFS UUC (mixed)
RNA 1: CACCCGUGCAAAAAUGCAGGGGUCUAAAACUGAGCGGAUAACCUCUCUAUGG
RNA 2: GGGAAUGGAUCCACAUCUACGAAUUCCUACCAUAGAGAGGUUAUCCGCUCAUUCAGAUCGGAAGAGCACACGU
B20: target 1 MT 5'PFS AGA 3'PFS UUC (mixed)
RNA 1: CACCCGUGCAAAAAUGCAGGGGUCUAAAACUGAGCGGAUAACCUCUCUAUGG
RNA 2: GGGAAUGGAUCCACAUCUACGAAUUCAGACCAUAGAGAGGUUAUCCGCUCAUUCAGAUCGGAAGAGCACACGU
B21: target 1 MT 5'PFS GUG 3'PFS UCU (mixed)
RNA 1: CACCCGUGCAAAAAUGCAGGGGUCUAAAACUGAGCGGAUAACCUCUCUAUGG
RNA 2: GGGAAUGGAUCCACAUCUACGAAUUCGUGCCAUAGAGAGGUUAUCCGCUCAUCUAGAUCGGAAGAGCACACGU
B22: target 1 U8A,U19C (mixed)
RNA 1: CACCCGUGCAAAAAUGCAGGGGUCUAAAACUGAGCGGAUAACCUCUCUAUGG
RNA 2: GGGAAUGGAUCCACAUCUACGAAUUCGUACCACAGAGAGGUUAACCGCUCACCGAGAUCGGAAGAGCACACGU
B23: target 1 insG 3' of 16,insG 3' of 3 (mixed)
RNA 1: CACCCGUGCAAAAAUGCAGGGGUCUAAAACUGAGCGGAUAACCUCUCUAUGG
RNA 2: GGGAAUGGAUCCACAUCUACGAAUUCGUACCAUAGAGGAGGUUAUCCGCUGCACCGAGAUCGGAAGAGCACACGU
B24: target 1 MT 5'PFS AGA 3'PFS UUG (mixed)
RNA 1: CACCCGUGCAAAAAUGCAGGGGUCUAAAACUGAGCGGAUAACCUCUCUAUGG
RNA 2: GGGAAUGGAUCCACAUCUACGAAUUCAGACCAUAGAGAGGUUAUCCGCUCAUUGAGAUCGGAAGAGCACACGU
B25: target 1 MT 5'PFS CUA 3'PFS UUG (mixed)
RNA 1: CACCCGUGCAAAAAUGCAGGGGUCUAAAACUGAGCGGAUAACCUCUCUAUGG
RNA 2: GGGAAUGGAUCCACAUCUACGAAUUCCUACCAUAGAGAGGUUAUCCGCUCAUUGAGAUCGGAAGAGCACACGU
B26: target 1 MT 5'PFS AGA 3'PFS UUU (mixed)
RNA 1: CACCCGUGCAAAAAUGCAGGGGUCUAAAACUGAGCGGAUAACCUCUCUAUGG
RNA 2: GGGAAUGGAUCCACAUCUACGAAUUCAGACCAUAGAGAGGUUAUCCGCUCAUUUAGAUCGGAAGAGCACACGU
B27: target 1 MT 5'PFS GUA 3'PFS AUG (mixed)
RNA 1: CACCCGUGCAAAAAUGCAGGGGUCUAAAACUGAGCGGAUAACCUCUCUAUGG
RNA 2: GGGAAUGGAUCCACAUCUACGAAUUCGUACCAUAGAGAGGUUAUCCGCUCAAUGAGAUCGGAAGAGCACACGU
B28: target 1 MT 5'PFS CAC 3'PFS UCG (mixed)
RNA 1: CACCCGUGCAAAAAUGCAGGGGUCUAAAACUGAGCGGAUAACCUCUCUAUGG
RNA 2: GGGAAUGGAUCCACAUCUACGAAUUCCACCCAUAGAGAGGUUAUCCGCUCAUCGAGAUCGGAAGAGCACACGU

These binders were tested against T1, EsCas13d, nuclease-dead (assay: crRNA (strand 1, pre-loaded); Mg2+; 40 mM Tris-HCl pH 7.5, 150 mM NaCl, 6 mM MgCl2, 1 mM DTT, 0.1% Tween-20, 0.2 mg/ml BSA; 25 C; 10 min per concentration, then washed). Conditions: tags: His6-TwinStrep-SUMO cleaved; N-terminal SNAP kept (SNAP-Surface 488); label: 3' end held by stalled T7 RNA polymerase.
For B1, the Kd was 11.7 ± 2.5 nM. Binder B2 has a Kd of 14.5 ± 1.45 nM. B3 gave a Kd of 9.5 ± 0.4 nM. In the case of B4, the Kd is reported as 10.5 ± 0.62 nM. B5 gave a Kd of 14.8 ± 1.45 nM. With B6 the Kd was 20.5 ± 6.5 nM. B7 gave a Kd of 10.9 ± 1.1 nM. With B8 the Kd was 29.5 ± 7.5 nM. Work on B9 yielded a Kd of 32.5 ± 9.5 nM. B10 was tested, and the Kd was ~31 nM. B11 showed a Kd of 42 ± 11 nM. B12 showed a Kd of 7.55 ± 1.15 nM. In the case of B13, the Kd is reported as 11.9 ± 4 nM. B14 showed a Kd of 14.3 ± 2.75 nM. Binder B15 has a Kd of 12.9 ± 1.1 nM. B16 showed a Kd of 24 ± 6 nM. Work on B17 yielded a Kd of 14.2 ± 2.55 nM. For B18, the Kd was 20.9 ± 4.25 nM. Binder B19 has a Kd of 6.85 ± 2.1 nM. With B20 the Kd was ~22 nM. B21 showed a Kd of 10.3 ± 0.7 nM. Work on B22 yielded a Kd of 56 ± 9 nM. B23 was tested, and the Kd was 16.2 ± 1.1 nM. B24 was tested, and the Kd was 50 ± 18 nM. In the case of B25, the Kd is reported as 5.7 ± 0.65 nM. B26 showed a Kd of 27.5 ± 11 nM. Binder B27 has a Kd of 14 ± 0.85 nM. With B28 the Kd was 8.65 ± 3.7 nM.

Source: PMC10786891, “Massively parallel profiling of RNA-targeting CRISPR-Cas13d”
